We go through five variants from publication PMC7954794 (2021).

The chains are these.
B1: S. cerevisiae Abp1 (full length; SH3 domain 535-592 mutated) / Hua2 (parent complex)
chain 1: MALEPIDYTTHSREIDAEYLKIVRGSDPDTTWLIISPNAKKEYEPESTGSSFHDFLQLFDETKVQYGLARVSPPGSDVEKIIIIGWCPDSAPLKTRASFAANFAAVANNLFKGYHVQVTARDEDDLDENELLMKISNAAGARYSIQTSSKQQGKASTPPVKKSFTPSKSPAPVSKKEPVKTPSPAPAAKISSRVNDNNDDDDWNEPELKERDFDQAPLKPNQSSYKPIGKIDLQKVIAEEKAKEDPRLVQKPTAAGSKIDPSSDIANLKNESKLKRDSEFNSFLGTTKPPSMTESSLKNDDDKVIKGFRNEKSPAQLWAERKAKQNSGNAETKAEAPKPEVPEDEPEGEPDVKDLKSKFEGLAASEKEEEEMENKFAPPPKKSEPTIISPKPFSKPQEPVKAEEAEQPKTDYKKIGNPLPGMHIEADNEEEPEENDDDWDDDEDEAAQPPLPSRNVASGAPVQKEEPEQEEIAPSLPSRNSIPAPKQEEAPEQAPEEEIEEEAEEAAPQLPSRSSAAPPPPPRRATPEKKPKENPWATAEYDYDAAEDNELTFVENDKIINIEFVDDDWWLGELEKDGSKGLFPSNYVSLGN
chain 2: MQQTKFGKMYLDHDSVVEYSEDEIVEADRITLGYKKRLSMIENQMRHLLEDFSLDVQQIEPILADLQKYYDAFLQLLQKRNKSLQCKRSTHQPVPSPMNSQTSTNAKVNLSGKLMKFQLNSVQKFDEENILRILQNKIEFEHYFQIDKGKKQKVLLLAVYQCLNGPTRLHKVLNIEGIIHNNSIRTILGKQVSSSKWTVFLYDVKLVLLAHRQDVPNLETSKMIVRYGDLFPCALYFKDHTAY

The variants in the assay derive from B1. Briefly: DHFR protein-fragment complementation in yeast (Abp1-DHFR F[1,2] x partner-DHFR F[3]), deep mutational scanning, second methotrexate selection vs reference; S. cerevisiae, DHFR-PCA selection in liquid with methotrexate at 30 C, two 72 h selections (the score uses the second); reference = the pre-selection culture.
With chain 1 MALEPIDYTTHSREIDAEYLKIVRGSDPDTTWLIISPNAKKEYEPESTGSSFHDFLQLFDETKVQYGLARVSPPGSDVEKIIIIGWCPDSAPLKTRASFAANFAAVANNLFKGYHVQVTARDEDDLDENELLMKISNAAGARYSIQTSSKQQGKASTPPVKKSFTPSKSPAPVSKKEPVKTPSPAPAAKISSRVNDNNDDDDWNEPELKERDFDQAPLKPNQSSYKPIGKIDLQKVIAEEKAKEDPRLVQKPTAAGSKIDPSSDIANLKNESKLKRDSEFNSFLGTTKPPSMTESSLKNDDDKVIKGFRNEKSPAQLWAERKAKQNSGNAETKAEAPKPEVPEDEPEGEPDVKDLKSKFEGLAASEKEEEEMENKFAPPPKKSEPTIISPKPFSKPQEPVKAEEAEQPKTDYKKIGNPLPGMHIEADNEEEPEENDDDWDDDEDEAAQPPLPSRNVASGAPVQKEEPEQEEIAPSLPSRNSIPAPKQEEAPEQAPEEEIEEEAEEAAPQLPSRSSAAPPPPPRRATPEKKPKENVWATAEYDYDAAEDNELTFVENDKIINIEFVDDDWWLGELEKDGSKGLFPSNYVSLGN [chain 1 P535V], the screen value was 1.51 DMS score: mean over two replicates of log2(f_test/f_ref + 0.5)/ln 2, minus the synonymous-codon median (not a log2 ….
With chain 1 MALEPIDYTTHSREIDAEYLKIVRGSDPDTTWLIISPNAKKEYEPESTGSSFHDFLQLFDETKVQYGLARVSPPGSDVEKIIIIGWCPDSAPLKTRASFAANFAAVANNLFKGYHVQVTARDEDDLDENELLMKISNAAGARYSIQTSSKQQGKASTPPVKKSFTPSKSPAPVSKKEPVKTPSPAPAAKISSRVNDNNDDDDWNEPELKERDFDQAPLKPNQSSYKPIGKIDLQKVIAEEKAKEDPRLVQKPTAAGSKIDPSSDIANLKNESKLKRDSEFNSFLGTTKPPSMTESSLKNDDDKVIKGFRNEKSPAQLWAERKAKQNSGNAETKAEAPKPEVPEDEPEGEPDVKDLKSKFEGLAASEKEEEEMENKFAPPPKKSEPTIISPKPFSKPQEPVKAEEAEQPKTDYKKIGNPLPGMHIEADNEEEPEENDDDWDDDEDEAAQPPLPSRNVASGAPVQKEEPEQEEIAPSLPSRNSIPAPKQEEAPEQAPEEEIEEEAEEAAPQLPSRSSAAPPPPPRRATPEKKPKENPWATAEYDYDAAEDNELTFVENDKIINIEFVDDDWWLGELEGDGSKGLFPSNYVSLGN [chain 1 K576G] the figure was -0.96 DMS score: mean over two replicates of log2(f_test/f_ref + 0.5)/ln 2, minus the synonymous-codon median (not a log2 ….
Then chain 1 MALEPIDYTTHSREIDAEYLKIVRGSDPDTTWLIISPNAKKEYEPESTGSSFHDFLQLFDETKVQYGLARVSPPGSDVEKIIIIGWCPDSAPLKTRASFAANFAAVANNLFKGYHVQVTARDEDDLDENELLMKISNAAGARYSIQTSSKQQGKASTPPVKKSFTPSKSPAPVSKKEPVKTPSPAPAAKISSRVNDNNDDDDWNEPELKERDFDQAPLKPNQSSYKPIGKIDLQKVIAEEKAKEDPRLVQKPTAAGSKIDPSSDIANLKNESKLKRDSEFNSFLGTTKPPSMTESSLKNDDDKVIKGFRNEKSPAQLWAERKAKQNSGNAETKAEAPKPEVPEDEPEGEPDVKDLKSKFEGLAASEKEEEEMENKFAPPPKKSEPTIISPKPFSKPQEPVKAEEAEQPKTDYKKIGNPLPGMHIEADNEEEPEENDDDWDDDEDEAAQPPLPSRNVASGAPVQKEEPEQEEIAPSLPSRNSIPAPKQEEAPEQAPEEEIEEEAEEAAPQLPSRSSAAPPPPPRRATPEKKPKENPWATAEYDYDAAEDNELTFVENEKIINIEFVDDDWWLGELEKDGSKGLFPSNYVSLGN [chain 1 D557E], with -0.885 DMS score: mean over two replicates of log2(f_test/f_ref + 0.5)/ln 2, minus the synonymous-codon median (not a log2 ….
As to chain 1 MALEPIDYTTHSREIDAEYLKIVRGSDPDTTWLIISPNAKKEYEPESTGSSFHDFLQLFDETKVQYGLARVSPPGSDVEKIIIIGWCPDSAPLKTRASFAANFAAVANNLFKGYHVQVTARDEDDLDENELLMKISNAAGARYSIQTSSKQQGKASTPPVKKSFTPSKSPAPVSKKEPVKTPSPAPAAKISSRVNDNNDDDDWNEPELKERDFDQAPLKPNQSSYKPIGKIDLQKVIAEEKAKEDPRLVQKPTAAGSKIDPSSDIANLKNESKLKRDSEFNSFLGTTKPPSMTESSLKNDDDKVIKGFRNEKSPAQLWAERKAKQNSGNAETKAEAPKPEVPEDEPEGEPDVKDLKSKFEGLAASEKEEEEMENKFAPPPKKSEPTIISPKPFSKPQEPVKAEEAEQPKTDYKKIGNPLPGMHIEADNEEEPEENDDDWDDDEDEAAQPPLPSRNVASGAPVQKEEPEQEEIAPSLPSRNSIPAPKQEEAPEQAPEEEIEEEAEEAAPQLPSRSSAAPPPPPRRATPEKKPKENPWATAEYDYDAAEDNELTFVENDKIINIEFVDDDWWLGELEKDGSKGLFPSNYVWLGN [chain 1 S589W], the screen value was 0.0382 DMS score: mean over two replicates of log2(f_test/f_ref + 0.5)/ln 2, minus the synonymous-codon median (not a log2 ….
Then chain 1 MALEPIDYTTHSREIDAEYLKIVRGSDPDTTWLIISPNAKKEYEPESTGSSFHDFLQLFDETKVQYGLARVSPPGSDVEKIIIIGWCPDSAPLKTRASFAANFAAVANNLFKGYHVQVTARDEDDLDENELLMKISNAAGARYSIQTSSKQQGKASTPPVKKSFTPSKSPAPVSKKEPVKTPSPAPAAKISSRVNDNNDDDDWNEPELKERDFDQAPLKPNQSSYKPIGKIDLQKVIAEEKAKEDPRLVQKPTAAGSKIDPSSDIANLKNESKLKRDSEFNSFLGTTKPPSMTESSLKNDDDKVIKGFRNEKSPAQLWAERKAKQNSGNAETKAEAPKPEVPEDEPEGEPDVKDLKSKFEGLAASEKEEEEMENKFAPPPKKSEPTIISPKPFSKPQEPVKAEEAEQPKTDYKKIGNPLPGMHIEADNEEEPEENDDDWDDDEDEAAQPPLPSRNVASGAPVQKEEPEQEEIAPSLPSRNSIPAPKQEEAPEQAPEEEIEEEAEEAAPQLPSRSSAAPPPPPRRATPEKKPKENPWATAEYDYDAAEDNELTFVENDKIINIEFVDDDWWLGELEKDGSKGLFPSNYVSLGA [chain 1 N592A], with 0.381 DMS score: mean over two replicates of log2(f_test/f_ref + 0.5)/ln 2, minus the synonymous-codon median (not a log2 ….
